Experimental data: patent US8920805B2, “Inhibition of tumor metastasis by anti-neuropilin 2 antibodies” (Genentech, Inc., priority 2007, dated 2014)

Test system: E 17.5 Hippocampal growth cones
Assay: Hippocampal neuronal growth cone collapse assay (Sema3F)
Format: cell-based
Conditions: Anti-Nrp2^B 50 μg/ml; Nrp2 ECD 10 ug/ml
Protocol: FIG. 17. […] (A) Images of E 17.5 Hippocampal growth cones stained with rhodamine conjugated phalloidin. Control growth cones show large actin rich structures at the tip of each axon, which are reduced with Sema3F treatment. […] In contrast, Nrp2 ECD (10 ug/ml) does block this collapse. (B) Quality control for anti-Nrp2 immunohistochemistry. […] This antibody was subsequently used for IHC on fresh frozen tumor sections. (Scale bar main images=**μm and for inset images=**μm.
Then, the ability of Anti-Nrp2^B to modulate semaphorin function was tested. […] Thus, Anti-Nrp2^B acts to block specific aspects of Nrp2 function, inhibiting VEGFC but not VEGF or Sema3F mediated cellular responses.

B1: Nrp2 ECD: Nrp2 extracellular domain protein, positive control for blocking Sema3F (protein, UniProt O60462 21-864, looked up)
extracellular domain: RGQPDPPCGGRLNSKDAGYITSPGYPQDYPSHQNCEWIVYAPEPNQKIVLNFNPHFEIEKHDCKYDFIEIRDGDSESADLLGKHCGNIAPPTIISSGSMLYIKFTSDYARQGAGFSLRYEIFKTGSEDCSKNFTSPNGTIESPGFPEKYPHNLDCTFTILAKPKMEIILQFLIFDLEHDPLQVGEGDCKYDWLDIWDGIPHVGPLIGKYCGTKTPSELRSSTGILSLTFHTDMAVAKDGFSARYYLVHQEPLENFQCNVPLGMESGRIANEQISASSTYSDGRWTPQQSRLHGDDNGWTPNLDSNKEYLQVDLRFLTMLTAIATQGAISRETQNGYYVKSYKLEVSTNGEDWMVYRHGKNHKVFQANNDATEVVLNKLHAPLLTRFVRIRPQTWHSGIALRLELFGCRVTDAPCSNMLGMLSGLIADSQISASSTQEYLWSPSAARLVSSRSGWFPRIPQAQPGEEWLQVDLGTPKTVKGVIIQGARGGDSITAVEARAFVRKFKVSYSLNGKDWEYIQDPRTQQPKLFEGNMHYDTPDIRRFDPIPAQYVRVYPERWSPAGIGMRLEVLGCDWTDSKPTVETLGPTVKSEETTTPYPTEEEATECGENCSFEDDKDLQLPSGFNCNFDFLEEPCGWMYDHAKWLRTTWASSSSPNDRTFPDDRNFLRLQSDSQREGQYARLISPPVHLPRSPVCMEFQYQATGGRGVALQVVREASQESKLLWVIREDQGGEWKHGRIILPSYDMEYQIVFEGVIGKGRSGEIAIDDIRISTDVPLENCMEPISAFAGENFKVDIPEIHEREGYEDEIDDEYEVDWSNSSSATSGSGAPSTDKEKSWLYTLDP
modifications: extracellular domain
semaphorin (Sema3F) induced growth cone collapse: inhibited this collapse completely
